Measurements published in US20210261685A1 (Alector, published 2021).

T1: Recombinant human MerTK human Fc Chimera protein (R&D systems, Cat #391-MR-100) (human, UniProt Q12866 26-499, limits assumed)
T1 construct: Bought; also called recombinant human MerTK protein; MerTK-Fc
T1 sequence: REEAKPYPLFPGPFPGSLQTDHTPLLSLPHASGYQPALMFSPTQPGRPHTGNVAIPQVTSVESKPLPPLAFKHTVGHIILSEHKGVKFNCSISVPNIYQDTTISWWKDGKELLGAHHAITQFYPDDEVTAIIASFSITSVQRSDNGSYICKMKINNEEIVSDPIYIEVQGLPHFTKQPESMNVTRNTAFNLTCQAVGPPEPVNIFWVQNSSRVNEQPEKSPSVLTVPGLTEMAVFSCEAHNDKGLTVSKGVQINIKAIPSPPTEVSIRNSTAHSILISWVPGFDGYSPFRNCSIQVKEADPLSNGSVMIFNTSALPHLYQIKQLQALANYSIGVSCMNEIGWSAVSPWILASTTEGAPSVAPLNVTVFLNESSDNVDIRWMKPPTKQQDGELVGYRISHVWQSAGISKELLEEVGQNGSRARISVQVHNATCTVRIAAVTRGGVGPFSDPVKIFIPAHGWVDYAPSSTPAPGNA


biological target: T1, Recombinant human MerTK human Fc …; assay: competition ELISA: His-tagged Gas6 (3 ug/ml) binding to captured human MerTK-Fc, anti-His-HRP detection; blocked ligand Gas6
Protocol: Rabbit anti-human IgG polyclonal antibody (Jackson ImmunoResearch, Cat #309-005-008) was captured to a high-protein binding plate at 2 μg/ml 4° C. overnight. After washing with 0.05% Tween20 in PBS three times, 5% BSA in PBS was added for 1 hour. Recombinant human MerTK human Fc Chimera protein (R&D systems, Cat #391-MR-100) was added at 2 μg/ml for 1 hour and the plates were then washed. Anti-MerTK antibodies were titrated to final concentration range of between 66.6 nM to 4 pM and then 40 μl of serially diluted antibody and 40 μl of His tag-conjugated recombinant Gas6 protein (R&D systems, Cat #885-GSB-050) at 3 μg/ml or His tag-conjugated recombinant ProS protein (R&D systems, Cat #9489-PS-100) at 20 μg/ml. After a further incubation for 1 hour, plates were washed and incubated for 1 hour with HRP-conjugated anti-6×His tag antibody (Abcam, Cat #ab1187). Plates were then washed and an HRP substrate (TMB) was used to develop the plates. After sufficient color change was observed, the reaction was stopped by adding 50 μl 2N H₂SO₄ and the OD was measured using a spectrophotometer (BioTek).

Binder	IC50 (read off the curve)
MTK-21 (antibody, human IgG1, V domains shown) VH: QIQLVQSGPELKKPGETVKISCKASGYTFTNFGMTWVRQAPGMDLKWMGWINTYTGEPKYADDFKGRFALSLETSASTAYLQITNFKNEDTATYFCARGGGRLGLRPLDYWGQGTTLTVSS VL: DIQMTQTTSSLSASLGDRVTISCRASQDINNYLNWYQQKPDGTVKLLIYYTSSLHSGVPSRFSGSGSGTDYSLTITNLEQEDIATYFCQQGNTLPWTFGGGTRLEIK	~6 nM
MTK-16 (antibody, human IgG1, V domains shown) VH: LIQLVQSGPELKKPGETVKISCKASGYTFTNHGMNWVKQDPGKGLKWMGWINTYTGEPTYADDFKGRFVFSMETSASAAFLQINNLKNEDTATYFCARKGVTAARYFDYWGQGTTLTVSS VL: DIVMTQSPKFMSTSVGDRVSITCKASQNVRTAVAWYKKKPGQSPKALINLASNRHTGVPDRFTGSGSGTDFTLTISNVQSEDLADYFCLQHWNYPLTFGGGTKLEIK	~7 nM
MTK-07 (antibody, human IgG1, V domains shown) VH: DVQLQESGPGLVKPSQSLSLTCSVTGYSITSGYYWNWIRQFPGNTLEWMGYMSFDGDNKFNPSLKNRISITRDTSKNQFFLRLNSVTTEDTATYYCARGGYNYGSTEANWGQGTLVTVST VL: QIVLTQSPAIMSAFPGEKVTITCSASSSVTYMHWFQQKPGTSPKLWIFSTSNLASGVPARFSGSGSGTSYSLTISRMEAEDAATYYCQQRSSYPFTFGSGTKLEIK	~8 nM
